# T1: NFYA-1 (T08D10.1), MBP fusion;NFYB-1, MBP fusion;NFYC-1, MBP fusion (Caenorhabditis elegans;Caenorhabditis …, UniProt G5EEG1;O17286;O17072 1-482;1-403;1-232, ||)
# T1 sequence 1: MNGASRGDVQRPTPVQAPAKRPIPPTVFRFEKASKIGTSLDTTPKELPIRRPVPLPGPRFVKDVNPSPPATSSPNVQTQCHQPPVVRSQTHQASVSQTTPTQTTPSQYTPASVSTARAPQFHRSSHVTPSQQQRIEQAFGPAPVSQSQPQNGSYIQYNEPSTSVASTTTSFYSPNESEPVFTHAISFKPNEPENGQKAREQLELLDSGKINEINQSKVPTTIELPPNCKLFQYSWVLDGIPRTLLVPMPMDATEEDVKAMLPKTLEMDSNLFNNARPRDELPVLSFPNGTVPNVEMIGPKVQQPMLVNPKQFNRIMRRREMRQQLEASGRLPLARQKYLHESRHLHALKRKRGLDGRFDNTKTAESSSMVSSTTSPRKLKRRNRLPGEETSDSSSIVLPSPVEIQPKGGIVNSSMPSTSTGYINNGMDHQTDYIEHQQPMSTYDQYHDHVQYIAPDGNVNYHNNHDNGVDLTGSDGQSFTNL
# T1 sequence 2: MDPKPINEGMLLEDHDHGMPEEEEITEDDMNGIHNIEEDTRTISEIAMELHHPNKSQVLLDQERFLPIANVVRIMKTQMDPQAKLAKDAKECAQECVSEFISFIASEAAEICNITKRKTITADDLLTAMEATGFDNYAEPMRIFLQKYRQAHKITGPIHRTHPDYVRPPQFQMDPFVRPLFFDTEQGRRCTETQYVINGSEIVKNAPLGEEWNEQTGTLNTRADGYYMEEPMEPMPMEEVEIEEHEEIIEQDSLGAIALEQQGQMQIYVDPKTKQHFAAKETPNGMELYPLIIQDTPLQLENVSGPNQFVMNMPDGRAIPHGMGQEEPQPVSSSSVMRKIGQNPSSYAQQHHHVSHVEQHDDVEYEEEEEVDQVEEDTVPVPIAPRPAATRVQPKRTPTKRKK
# T1 sequence 3: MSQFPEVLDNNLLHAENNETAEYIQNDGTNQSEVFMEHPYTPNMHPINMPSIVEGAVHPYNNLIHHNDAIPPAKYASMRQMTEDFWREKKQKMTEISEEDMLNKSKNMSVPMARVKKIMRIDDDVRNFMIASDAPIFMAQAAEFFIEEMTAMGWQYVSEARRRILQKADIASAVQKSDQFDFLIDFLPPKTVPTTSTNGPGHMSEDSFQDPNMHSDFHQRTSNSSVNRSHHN
# How the values were obtained:
# [1] = target: T1, NFYA-1 (T08D10.1), MBP fusion;NFYB-1, …; test: EMSA
# [2] = target: T1, NFYA-1 (T08D10.1), MBP fusion;NFYB-1, …; test: competition
# [3] = target: T1, NFYA-1 (T08D10.1), MBP fusion;NFYB-1, …; test: competition; remark: listed apart in the source
binder,measurement,setting,value
CCAAT box probe (dsDNA) DNA 1: AGTTGTAGGCCTCTGCTTCCTGACCAATCTACAGAATAGGCTCCGCCTTC DNA 2: AGTTGAAGGCGGAGCCTATTCTGTAGATTGGTCAGGAAGCAGAGGCCTAC,binding result,[1],binds
CCAAT box wild-type competitor (+CAAT) (dsDNA) DNA 1: AGTTGTAGGCCTCTGCTTCCTGACCAATCTACAGAATAGGCTCCGCCTTC DNA 2: AGTTGAAGGCGGAGCCTATTCTGTAGATTGGTCAGGAAGCAGAGGCCTAC,binding result,[2],binds
CCAAT box mutant competitor (+mut) (dsDNA) DNA 1: AGTTGTAGGCCTCTGCTTCCTGACATGTCTACAGAATAGGCTCCGCCTTC DNA 2: AGTTGAAGGCGGAGCCTATTCTGTAGACATGTCAGGAAGCAGAGGCCTAC,binding result,[3],no binding
